Laboratory results as given in PMC6689989.

Assays:
C[C@H](N)C(=O)O = test: purified protein; details: Na+ primary substrate (S1) binding site, W259
NCC(=O)O = test: purified protein; details: Na+ primary substrate (S1) binding site, near F259 and I359

Substance | Km (C[C@H](N)C(=O)O) [µM] | Km (NCC(=O)O) [µM]
LeuT (Aquifex aeolicus VF5; F259W) | 3.7 ± 0.9 | –
LeuT (Aquifex aeolicus VF5) | – | 1.2 ± 0.2
